Data as given in the supplement of paper PMC10724198.
± gives the standard deviation of the averaged measurements.

System: Saccharomyces cerevisiae
Test: protein stability index of tFT-peptide fusion (C-terminal peptide) (PSI (0-1 scale)); higher = more stable (slower turnover)
Settings: temperature: 30 C
Experimental: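 MPS profiling in S. cerevisiae of the yeast C-terminome library: the last 12 aa of each annotated ORF are fused to the C-terminus of a sfGFP-mCherry timer, after a GGGS linker. Cells are FACS-sorted into 8 mCherry/sfGFP bins and deep-sequenced. PSI runs from 0 (unstable) to 1 (stable); wild type and das1Δ backgrounds, two technical replicates each.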

[1] = genetic background: das1 deletion

| Sequence | protein stability index [1] | protein stability index (genetic background: wild type) |
| --- | --- | --- |
| FFSKKRPNIDSK [YOL037C C-terminal 12 aa] | 0.696 ± 0.011 | 0.684 ± 0.058 |
| FGTWEIVIRLLS [RIM2 C-terminal 12 aa] | 0.382 ± 0.0062 | 0.123 ± 0.018 |
| FILKAKLEWIKW [YOL075C C-terminal 12 aa] | 0.515 ± 0.018 | 0.578 ± 0.11 |
| FKQSEITLYRTR [PEP8 C-terminal 12 aa] | 0.693 ± 0.032 | 0.722 ± 0.11 |
| FKSGQNMLKDEL [SCJ1 C-terminal 12 aa] | 0.681 ± 0.022 | 0.648 ± 0.0073 |
| FLFHCVHLLLSG [YDR535C C-terminal 12 aa] | 0.511 ± 0.011 | 0.4909 ± 0.003 |
| FLRNFKDNRFLQ [YOR121C C-terminal 12 aa] | 0.726 ± 0.025 | 0.6968 ± 0.004 |
| FPLLMSEIEDFR [YNL067W-A C-terminal 12 aa] | 0.718 ± 0.019 | 0.695 ± 0.033 |
| FPRNLAKSVTVE [GFA1 C-terminal 12 aa] | 0.599 ± 0.0094 | 0.593 ± 0.011 |
| FQVVSKKKGRKH [SMY2 C-terminal 12 aa] | 0.691 ± 0.017 | 0.72 ± 0.033 |
| FSRASCITVWLV [YPR160C-A C-terminal 12 aa] | 0.6275 ± 0.0035 | 0.228 ± 0.027 |
| FSSEFSSDPTVN [YJL206C C-terminal 12 aa] | 0.69642 ± 0.00024 | 0.724 ± 0.034 |
| FSVCCKDATEVS [YHR070C-A C-terminal 12 aa] | 0.6764 ± 0.0025 | 0.682 ± 0.031 |
| FTLVDYDKKFHK [ADH7 C-terminal 12 aa] | 0.702 ± 0.043 | 0.78 ± 0.087 |
| FTNQKLAKLEVR [YMR141C C-terminal 12 aa] | 0.57877 ± 0.00025 | 0.591 ± 0.0041 |
| FVLIVLGLLTYL [GET2 C-terminal 12 aa] | 0.364 ± 0.0094 | 0.38 ± 0.019 |
| FVSHSRFFNRGT [VPS53 C-terminal 12 aa] | 0.684 ± 0.03 | 0.6958 ± 0.0033 |

| Sequence | protein stability index [1] | protein stability index (genetic background: wild type) |
| --- | --- | --- |
| FYIDKFQVREVK [SUC2 C-terminal 12 aa] | 0.7059 ± 0.0061 | 0.683 ± 0.038 |
| GAAIAAGVAFLF [YCL048W-A C-terminal 12 aa] | 0.716 ± 0.011 | 0.538 ± 0.021 |
| GAGIMALIGKWA [ZRT1 C-terminal 12 aa] | 0.687 ± 0.017 | 0.661 ± 0.022 |
| GALLAGAAALLL [CCW12 C-terminal 12 aa] | 0.7007 ± 0.0036 | 0.698 ± 0.019 |
| GAQIISLDEDVF [GIP1 C-terminal 12 aa] | 0.715 ± 0.045 | 0.716 ± 0.037 |
| GEGESIDDKLTD [STB1 C-terminal 12 aa] | 0.6976 ± 0.00096 | 0.733 ± 0.054 |
| GESISMLFEHGW [PRS5 C-terminal 12 aa] | 0.719 ± 0.012 | 0.7458 ± 0.0051 |
| GESVDKVTKNEQ [YPR114W C-terminal 12 aa] | 0.691 ± 0.011 | 0.662 ± 0.014 |
| GETDSKIKYKYR [SND2 C-terminal 12 aa] | 0.712 ± 0.06 | 0.573 ± 0.026 |
| GFASLIKDFKKK [NET1 C-terminal 12 aa] | 0.672 ± 0.018 | 0.685 ± 0.043 |
| GGGYLTSLKLFI [YOR041C C-terminal 12 aa] | 0.68787 ± 0.00068 | 0.681 ± 0.031 |
| GGNLPQGYFYTQ [GTS1 C-terminal 12 aa] | 0.707 ± 0.0075 | 0.69615 ± 0.00011 |
| GIRRIVHEPLGI [MTE1 C-terminal 12 aa] | 0.733 ± 0.016 | 0.729 ± 0.045 |
| GIVRHLIDSVKL [ACS1 C-terminal 12 aa] | 0.695 ± 0.012 | 0.6884 ± 0.0041 |
| GKGAIDGFFKRK [RNH202 C-terminal 12 aa] | 0.694 ± 0.03 | 0.6575 ± 0.004 |
| GLEFHDVEDRIA [PEX18 C-terminal 12 aa] | 0.7047 ± 0.0036 | 0.702 ± 0.013 |
